Results published in article PMC9048679, “Correlation Between Improved Mating Efficiency and Weakened Scaffold-Kinase Interaction in the Mating Pheromone Response Pathway Revealed by Interspecies Complementation” (Frontiers in Microbiology, 2022).
Each block holds one molecule with its values, some of them ahead of it.

What was measured:
Test in all cases: two-hybrid; Matchmaker GAL4 system; Ste5 forms on Gal4-AD (pGADT7, AH109), Ste7 orthologs on Gal4-BD (pGBKT7, Y187), diploids on SC-Leu-Trp; quantitative β-galactosidase assay of cell lysate with ONPG; units of the same BD-Ste7 with void pGADT7 subtracted; mean of three colonies
[1] = target: KlSte7 (Ste7 of Kluyveromyces lactis), Gal4-BD fusion (K. lactis) (UniProt Q6CSZ8)
[2] = target: KmSte7 (Ste7 of Kluyveromyces marxianus), Gal4-BD fusion (K. marxianus)
[3] = target: T1, KlSte7 (Ste7 of Kluyveromyces lactis), Gal4-BD fusion (K. lactis, UniProt Q6CSZ8 1-504); conditions: partners not purified
T1 construct: Ste7 (MAPKK) of Kluyveromyces lactis, KEGG KLLA0_C16577g; ORF cloned into the EcoRI site of pGBKT7; source: yeast two-hybrid fusion (pGBKT7, transformed into Y187, diploid with AH109)
T1 sequence (looked up): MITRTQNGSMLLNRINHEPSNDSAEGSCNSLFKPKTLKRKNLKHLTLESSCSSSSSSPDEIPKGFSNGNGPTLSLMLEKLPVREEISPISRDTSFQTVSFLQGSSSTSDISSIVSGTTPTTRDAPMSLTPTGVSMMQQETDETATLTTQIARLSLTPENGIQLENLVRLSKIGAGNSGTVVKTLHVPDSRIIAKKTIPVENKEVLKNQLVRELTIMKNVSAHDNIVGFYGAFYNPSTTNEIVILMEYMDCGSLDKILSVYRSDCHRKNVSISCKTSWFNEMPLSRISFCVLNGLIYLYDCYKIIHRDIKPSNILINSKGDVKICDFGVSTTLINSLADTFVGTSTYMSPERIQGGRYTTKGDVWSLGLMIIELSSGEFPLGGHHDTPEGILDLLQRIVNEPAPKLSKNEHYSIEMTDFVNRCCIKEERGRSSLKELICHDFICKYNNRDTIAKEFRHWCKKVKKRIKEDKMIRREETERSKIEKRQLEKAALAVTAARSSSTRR

[4] = target: T2, KmSte7 (Ste7 of Kluyveromyces marxianus), Gal4-BD fusion (K. marxianus, UniProt A0ABX6F0V6 1-494); conditions: partners not purified
T2 construct: Ste7 (MAPKK) of Kluyveromyces marxianus, KEGG KLMA_70246; ORF cloned into the EcoRI site of pGBKT7; source: yeast two-hybrid fusion (pGBKT7, transformed into Y187, diploid with AH109)
T2 sequence (looked up): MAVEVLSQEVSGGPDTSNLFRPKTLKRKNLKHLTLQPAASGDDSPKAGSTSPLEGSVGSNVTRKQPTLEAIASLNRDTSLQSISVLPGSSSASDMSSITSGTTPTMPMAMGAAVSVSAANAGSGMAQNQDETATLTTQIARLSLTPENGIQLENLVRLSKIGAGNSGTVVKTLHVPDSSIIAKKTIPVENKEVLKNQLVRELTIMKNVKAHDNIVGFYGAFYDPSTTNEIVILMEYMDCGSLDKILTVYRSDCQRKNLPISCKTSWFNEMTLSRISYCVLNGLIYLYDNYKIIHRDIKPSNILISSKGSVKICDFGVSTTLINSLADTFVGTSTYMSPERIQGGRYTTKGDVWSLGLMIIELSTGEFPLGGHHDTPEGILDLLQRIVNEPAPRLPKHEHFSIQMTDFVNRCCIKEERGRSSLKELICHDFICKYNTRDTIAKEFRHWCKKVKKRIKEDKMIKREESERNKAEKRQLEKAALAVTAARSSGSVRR

strength of the interaction (units of β-galactosidase) (units of β-galactosidase) [1]: 20.3
strength of the interaction (units of β-galactosidase) (units of β-galactosidase) [2]: 11
Molecule: KlSte5-KmBD (KlSte5 with its Ste7-binding region replaced by that of KmSte5), Gal4-AD fusion (from UniProt A0ABX6ETE1 660-763)

strength of the interaction (units of β-galactosidase) (units of β-galactosidase) [1]: 31.8
strength of the interaction (units of β-galactosidase) (units of β-galactosidase) [2]: 14.9
Molecule: KmSte5-KlBD (KmSte5 with its Ste7-binding region replaced by that of KlSte5), Gal4-AD fusion (from UniProt A0ABX6ETE1 1-659)

strength of the interaction (units of β-galactosidase) [3]: 13.7 units of β-galactosidase
strength of the interaction (units of β-galactosidase) [4]: 8.13 units of β-galactosidase
B1: KlSte5 (Ste5 of Kluyveromyces lactis), Gal4-AD fusion (natural protein, K. lactis, UniProt Q6CKB4 1-746, looked up)
chain: MSRGNTSSMNSQDILFQLTNVGSSPVPKLDTGSTSGSNTSSPRRWTELFSKKRVKTPSVGTPSTASSMISSFYDSSPIRPVSKQHPKHLLVDPIMPPPPIMLSPIGHETLGKKPTRKNGNKSWKNERCCICGDLCSFKGSNEKVIPLECNHMCHEDCLMVSLRPLPHKSNLYDALPKCDICSMSCIPGQEDMRQKVRSHLLTLPDDGESVGLEPYNPQENYERIKLCDADLLPKHSGNDETFPHLQTTRTTARNNDIRLSFAFSLKPGKTVTPSLRDSIRLHRSRSIKRRSNFRGSTVSGLSSIVSSSSKDDCQLPSLHVQRQYFIQAFLNSFSEVKPWEIDAKYGLLRLIDNFLISLDGINFQHQVCYLFSEYLLVCRPSPATSANVLQFSSYRCFQLNNPPELDLLDATTLESKSRSGERILIKPYGLDTKALEKWITALFDLTLPFGNYDFTSIKVPEFVACIPSTNDTGTIIVRRQSTLNETLIPKTIRDSSVLTSISSILSIKRATPNELNLVLQLDKRKTNEDNIVSIKNVILALTWKFSTFNCCIVDVEGMVINCGTANDVLNSLAGPIKSNGNQPFSPDLLHQLWYRQKQKICKNVGVVVLSNSSMENGKSCLFSDYRIFADAGKRHPNELKIKVGFLNVDYSDNIKELVEIQDWNELLEAVAYSFNLSFDDDLDSSDCVSTSSSDFEVDSVPDKNRTFRLSSPISWENHVQADLTGSMNGISESIEDRQSNHMYDYL
notes: Ste5 of Kluyveromyces lactis, KEGG KLLA0_F12023g; probably the whole ORF; source: yeast two-hybrid fusion (pGADT7, transformed into AH109, diploid with Y187)

strength of the interaction (units of β-galactosidase) [3]: 30 units of β-galactosidase
strength of the interaction (units of β-galactosidase) [4]: 22.8 units of β-galactosidase
B2: KmSte5 (Ste5 of Kluyveromyces marxianus), Gal4-AD fusion (natural protein, K. marxianus, UniProt A0ABX6ETE1 1-763, looked up)
chain: MNSQEILFQLTNVGSTPVSSKNDTMTTPTSGSNTSSPRRWTELFSKKRAKTPSISTPSTSSSAVSSLHDGSPVRPGSKQSFRHFNIDSALQYPPVMQSPESYHSAGNGNGSGHGNVQVGKKPHRRGGNKSWKNEKCCICRDLCSFKGSTERVIILQCNHMCHEDCLMVSLNPVSKTFDLYDALPKCQMCSMLCVPSQEDMKQRLRNHLLTVNSSSSDQLSSAIPQVQSQLKPHNSPENTRTGIGPLAPPPPPLSMRNAVKTTPTNRDIRLSFASSLKPPVFVTPSVRDSWRLPRASSIKRRSNNYRGSTISALSSITSSSSLYNDSQLVCSLHIQRQYFMQAFLTSFEEIKPWEIDSRYGLLRLIDYFLISLDDQGFKQCCCYLFSEYLLLCQPSSKASSNVLQFSSYRFLQLNSPANIELIDATTLELKAKTGERVRIKPFNSDTKSLEKWITAFFDPTLTFGNLDFTSIPLPDFVSAMPSADDSRTIIVRRQNTINETIVTAGPRDSTLFTSISSILSIKRSTPRELNVILQVDRRKLKSENLITIKNVLSALTWKYHDFNCCIVGVDGLIVKIGGAREILDSWAEISDAGTQPFSPALLYKTWYKERGKVCNNAGVLVISNASMETGKTCLFHDYRMFANVGKRHVNELKIKVGFLNVDYTNKIKELVEIQDWNELLEAVSYSFNINFDDDDDDDDDEGDSDTSDSFSVGSSEFNKSLNSDNERLVRPPSPTSFEDIEADSHSQFDDDSELQHSIIYDYL
notes: Ste5 of Kluyveromyces marxianus, KEGG KLMA_20171; probably the whole ORF; also called natural KmSte5; source: yeast two-hybrid fusion (pGADT7, transformed into AH109, diploid with Y187)
